In patent US20160024487:

Legend:
[1] = tested on: T1, Lys(Dnp)-ATNATX4X3PRIVGG-Lys(Abz), X4 = Y, X3 = E
T1 sequence: KATNATYEPRIVGGK

[2] = tested on: T2, Lys(Dnp)-ATNATX4X3PRIVGG-Lys(Abz), X4 = E, X3 = F
T2 sequence: KATNATEFPRIVGGK

[3] = tested on: T3, Lys(Dnp)-ATNATX4X3PRIVGG-Lys(Abz), X4 = H, X3 = T
T3 sequence: KATNATHTPRIVGGK

[4] = tested on: T4, Lys(Dnp)-ATNATX4X3PRIVGG-Lys(Abz), X4 = G, X3 = H
T4 sequence: KATNATGHPRIVGGK

[5] = tested on: T5, Lys(Dnp)-ATNATX4X3PRIVGG-Lys(Abz), X4 = H, X3 = F
T5 sequence: KATNATHFPRIVGGK

[6] = tested on: T6, Lys(Dnp)-ATNATX4X3PRIVGG-Lys(Abz), X4 = G, X3 = G
T6 sequence: KATNATGGPRIVGGK

[7] = tested on: T7, Lys(Dnp)-ATNATX4X3PRIVGG-Lys(Abz), X4 = S, X3 = F
T7 sequence: KATNATSFPRIVGGK

[8] = tested on: T8, Lys(Dnp)-ATNATX4X3PRIVGG-Lys(Abz), X4 = E, X3 = K
T8 sequence: KATNATEKPRIVGGK

[9] = tested on: T9, Lys(Dnp)-ATNATX4X3PRIVGG-Lys(Abz), X4 = G, X3 = M
T9 sequence: KATNATGMPRIVGGK

[10] = tested on: T10, Lys(Dnp)-ATNATX4X3PRIVGG-Lys(Abz), X4 = P, X3 = P
T10 sequence: KATNATPPPRIVGGK

[11] = tested on: T11, Lys(Dnp)-ATNATX4X3PRIVGG-Lys(Abz), X4 = H, X3 = W
T11 sequence: KATNATHWPRIVGGK

[12] = tested on: T12, Lys(Dnp)-ATNATX4X3PRIVGG-Lys(Abz), X4 = G, X3 = P
T12 sequence: KATNATGPPRIVGGK

[13] = tested on: T13, Lys(Dnp)-ATNATX4X3PRIVGG-Lys(Abz), X4 = S, X3 = T
T13 sequence: KATNATSTPRIVGGK

[14] = tested on: T14, Lys(Dnp)-ATNATX4X3PRIVGG-Lys(Abz), X4 = T, X3 = S
T14 sequence: KATNATTSPRIVGGK

[15] = tested on: T15, Lys(Dnp)-ATNATX4X3PRIVGG-Lys(Abz), X4 = G, X3 = Y
T15 sequence: KATNATGYPRIVGGK

[16] = tested on: T16, Lys(Dnp)-ATNATX4X3PRIVGG-Lys(Abz), X4 = H, X3 = K
T16 sequence: KATNATHKPRIVGGK

[17] = tested on: T17, Lys(Dnp)-ATNATX4X3PRIVGG-Lys(Abz), X4 = N, X3 = H
T17 sequence: KATNATNHPRIVGGK

[18] = tested on: T18, Lys(Dnp)-ATNATX4X3PRIVGG-Lys(Abz), X4 = S, X3 = R
T18 sequence: KATNATSRPRIVGGK

[19] = tested on: T19, Lys(Dnp)-ATNATX4X3PRIVGG-Lys(Abz), X4 = S, X3 = Q
T19 sequence: KATNATSQPRIVGGK

[20] = tested on: T20, Lys(Dnp)-ATNATX4X3PRIVGG-Lys(Abz), X4 = H, X3 = G
T20 sequence: KATNATHGPRIVGGK

[21] = tested on: T21, Lys(Dnp)-ATNATX4X3PRIVGG-Lys(Abz), X4 = N, X3 = M
T21 sequence: KATNATNMPRIVGGK

[22] = tested on: T22, Lys(Dnp)-ATNATX4X3PRIVGG-Lys(Abz), X4 = G, X3 = K
T22 sequence: KATNATGKPRIVGGK

[23] = tested on: T23, Lys(Dnp)-ATNATX4X3PRIVGG-Lys(Abz), X4 = G, X3 = S
T23 sequence: KATNATGSPRIVGGK

[24] = tested on: T24, Lys(Dnp)-ATNATX4X3PRIVGG-Lys(Abz), X4 = D, X3 = F
T24 sequence: KATNATDFPRIVGGK

[25] = tested on: T25, Lys(Dnp)-ATNATX4X3PRIVGG-Lys(Abz), X4 = G, X3 = A
T25 sequence: KATNATGAPRIVGGK

[26] = tested on: T26, Lys(Dnp)-ATNATX4X3PRIVGG-Lys(Abz), X4 = E, X3 = W
T26 sequence: KATNATEWPRIVGGK

[27] = tested on: T27, Lys(Dnp)-ATNATX4X3PRIVGG-Lys(Abz), X4 = G, X3 = F
T27 sequence: KATNATGFPRIVGGK

[28] = tested on: T28, Lys(Dnp)-ATNATX4X3PRIVGG-Lys(Abz), X4 = Y, X3 = V
T28 sequence: KATNATYVPRIVGGK

[29] = tested on: T29, Lys(Dnp)-ATNATX4X3PRIVGG-Lys(Abz), X4 = T, X3 = F
T29 sequence: KATNATTFPRIVGGK

[30] = tested on: T30, Lys(Dnp)-ATNATX4X3PRIVGG-Lys(Abz), X4 = N, X3 = T
T30 sequence: KATNATNTPRIVGGK

[31] = tested on: T31, Lys(Dnp)-ATNATX4X3PRIVGG-Lys(Abz), X4 = Q, X3 = Q
T31 sequence: KATNATQQPRIVGGK

[32] = tested on: T32, Lys(Dnp)-ATNATX4X3PRIVGG-Lys(Abz), X4 = E, X3 = T
T32 sequence: KATNATETPRIVGGK

[33] = tested on: T33, Lys(Dnp)-ATNATX4X3PRIVGG-Lys(Abz), X4 = G, X3 = R
T33 sequence: KATNATGRPRIVGGK

[34] = tested on: T34, Lys(Dnp)-ATNATX4X3PRIVGG-Lys(Abz), X4 = S, X3 = A
T34 sequence: KATNATSAPRIVGGK

[35] = tested on: T35, Lys(Dnp)-ATNATX4X3PRIVGG-Lys(Abz), X4 = S, X3 = D
T35 sequence: KATNATSDPRIVGGK

[36] = tested on: T36, Lys(Dnp)-ATNATX4X3PRIVGG-Lys(Abz), X4 = W, X3 = I
T36 sequence: KATNATWIPRIVGGK

[37] = tested on: T37, Lys(Dnp)-ATNATX4X3PRIVGG-Lys(Abz), X4 = Q, X3 = M
T37 sequence: KATNATQMPRIVGGK

[38] = tested on: T38, Lys(Dnp)-ATNATX4X3PRIVGG-Lys(Abz), X4 = T, X3 = N
T38 sequence: KATNATTNPRIVGGK

[39] = tested on: T39, Lys(Dnp)-ATNATX4X3PRIVGG-Lys(Abz), X4 = D, X3 = Y
T39 sequence: KATNATDYPRIVGGK

Human plasma purified Factor Xa showed an FXa kcat/KM [1] of 54 M⁻¹ s⁻¹, an FXa kcat/KM [2] of 14 M⁻¹ s⁻¹ and an FXa kcat/KM [3] of 50 M⁻¹ s⁻¹. The FXa kcat/KM [4] was 58 M⁻¹ s⁻¹, the FXa kcat/KM [5] was 42 M⁻¹ s⁻¹ and the FXa kcat/KM [6] was 16 M⁻¹ s⁻¹. The FXa kcat/KM [7] was 17 M⁻¹ s⁻¹, the FXa kcat/KM [8] was 7.9 M⁻¹ s⁻¹ and the FXa kcat/KM [9] was 52 M⁻¹ s⁻¹. The FXa kcat/KM [10] was 14 M⁻¹ s⁻¹, the FXa kcat/KM [11] was 320 M⁻¹ s⁻¹ and the FXa kcat/KM [12] was 7.5 M⁻¹ s⁻¹. The FXa kcat/KM [13] was 32 M⁻¹ s⁻¹, the FXa kcat/KM [14] was 16 M⁻¹ s⁻¹ and the FXa kcat/KM [15] was 34 M⁻¹ s⁻¹. The FXa kcat/KM [16] was 28 M⁻¹ s⁻¹, the FXa kcat/KM [17] was 15 M⁻¹ s⁻¹ and the FXa kcat/KM [18] was 130 M⁻¹ s⁻¹. It also gave an FXa kcat/KM [19] of 45 M⁻¹ s⁻¹, an FXa kcat/KM [20] of 47 M⁻¹ s⁻¹ and an FXa kcat/KM [21] of 27 M⁻¹ s⁻¹. For the same substance, the FXa kcat/KM [22] was 34 M⁻¹ s⁻¹, the FXa kcat/KM [23] was 49 M⁻¹ s⁻¹ and the FXa kcat/KM [24] was 11 M⁻¹ s⁻¹. It also gave an FXa kcat/KM [25] of 50 M⁻¹ s⁻¹, an FXa kcat/KM [26] of 8 M⁻¹ s⁻¹ and an FXa kcat/KM [27] of 35 M⁻¹ s⁻¹. For the same substance, the FXa kcat/KM [28] was 49 M⁻¹ s⁻¹, the FXa kcat/KM [29] was 22 M⁻¹ s⁻¹ and the FXa kcat/KM [30] was 15 M⁻¹ s⁻¹. It also gave an FXa kcat/KM [31] of 1400 M⁻¹ s⁻¹, an FXa kcat/KM [32] of 7.9 M⁻¹ s⁻¹ and an FXa kcat/KM [33] of 130 M⁻¹ s⁻¹. It also gave an FXa kcat/KM [34] of 19 M⁻¹ s⁻¹, an FXa kcat/KM [35] of 10 M⁻¹ s⁻¹ and an FXa kcat/KM [36] of 180 M⁻¹ s⁻¹. For the same substance, the FXa kcat/KM [37] was 2200 M⁻¹ s⁻¹, the FXa kcat/KM [38] was 13 M⁻¹ s⁻¹ and the FXa kcat/KM [39] was 11 M⁻¹ s⁻¹.
